Reference: the supplement of paper PMC10567573

B1: PPP2R2C (parent)
chain: YSSSKGSLRLCDMRAAALCDKHSK

Variants of: B1
Experiment: protein stability index of a GFP-peptide fusion (GPS, HEK-293T) (PSI 1-6); higher = more stable
Conditions: c terminus: a fixed tail appended
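Note: lentivirally expressed fusions sorted by FACS into six bins by GFP to DsRed ratio, PSI derived from sequencing read proportions per bin multiplied by bin number.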

Protein stability index, by site and new letter:
A15: L 1.54; C 1.14; E 2.61; R 1.38; S 2.31; N 2.54; I 1.96; Y 2.34; Q 1.77; T 2.09; D 1.72; M 2.72; H 1.78; G 2.24; W 1.81; P 2.43; V 1.6; F 2.4; K 1.58
C19: A 1.74; H 1.56; W 1.69; I 2.03; Y 2.01; K 2.14; E 1.62; D 2.3; R 2.06; N 1.58; V 1.4; L 1.55; Q 1.69; F 2.32; S 1.73; P 1.84; T 1.71; M 1.68; G 1.25
S23: T 1.88; M 2.19; N 1.43; G 1.76; A 1.79; C 1.12; F 2.57; W 1.35; V 2.4; I 2.01; P 1.42; E 1.81; K 1.82; Y 2.52; L 1.93; Q 1.85; R 1.78; H 2.96; D 1.86
H22: Q 1.53; D 1.79; I 2.22; G 2.31; T 2.11; F 1.53; M 1.7; E 3.04; A 2.02; R 1.56; S 1.62; C 2.17; L 1.6; N 2.04; Y 1.91; K 1.54; W 2.05; P 1.16
C11: S 3.16; P 4.05; G 2.92; W 1.2; H 3.63; R 3.31; E 3.85; T 2.88; D 3.74; A 2.96; K 3.07; V 1.8; F 1.67; N 3.72; M 2.29; Q 2.97; L 2.36; I 1.42; Y 2.75
L18: D 1.48; Q 2.17; E 1.9; A 2.15; K 1.73; M 1.13; H 2.03; T 1.81; Y 1.8; W 1.44; P 1.58; V 2.02; R 1.96; N 1.65; S 1.79; C 1.55; G 1.52; I 1.96; F 1.69
R14: G 2.13; F 2.27; E 2.3; A 2.03; P 1.8; Y 2.45; W 1.69; D 1.55; T 1.98; C 2.89; S 2.02; V 1.81; Q 1.27; H 2.34; L 2.18; N 2.48; K 1.68; M 2.29
A17: D 1.51; N 3.18; M 1.79; S 1.31; F 2.36; W 2.33; G 1.61; H 2.29; T 1.52; K 1.85; R 1.78; V 3.45; E 2.16; L 1.75; I 1.39; Y 2.06; P 2.1; C 2.06; Q 3.18
L10: P 3.52; N 3.67; T 3.35; Y 2.02; R 3.16; S 3.54; Q 3.79; M 1.92; V 3.54; K 3.1; I 2.9; W 2.21
D12: C 1.99; I 1.6; W 2.7; E 2.71; L 1.82; N 2.63; M 1.78; T 2.69; K 2.54; G 1.93; V 2.11; Q 2.76; R 2.36; H 3.2; Y 2.1; F 1.52; A 2.32; S 2.29; P 2.25
A16: I 1.84; W 1.23; H 2.06; M 1.5; N 2.05; D 2.85; Y 1.63; K 2.53; V 1.82; F 2.2; P 1.64; C 2.56; E 2.28; R 2.04; S 2.02; Q 2.18; G 2.55; L 1.3; T 1.97
K24: D 2.22; M 2.11; F 1.36; R 1.9; S 1.65; N 2.15; Q 1.64; L 2.13; W 2.51; V 1.74; Y 1.52; C 1.21; A 1.85; T 2.39; H 1.43; E 1.96; P 1.9; I 2.06
M13: F 1.46; V 2.07; D 2.37; W 1.61; Y 3.27; T 2.21; C 1.73; L 2; I 2.08; A 1.52; Q 1.83; N 2.05; P 2.21; K 2.08; H 1.56; R 1.68; E 2.49; S 1.65; G 2
K21: M 1.96; W 2.12; Y 1.95; A 2.35; D 1.78; F 1.95; N 1.9; I 1.48; L 1.29; G 2.12; P 2.79; Q 1.82; E 1.26; R 1.69; C 2.48; T 1.86; V 2.63; H 2.01; S 2.21
D20: L 2.05; T 2.18; P 2.25; M 1.98; C 1.41; W 2.31; G 2.62; R 3.31; N 2.21; F 2.19; E 1.97; Q 2.33; A 1.64; K 2.6; H 2.64; S 1.81; V 2.58; Y 1.96; I 2.17
